Measurements taken from US20260193356A1 (BIOCYTOGEN PHARMACEUTICALS BEIJING, published 2026).

T1: His-tagged human PDL2 protein (hPDL2-his, ACROBiosystems Inc., Cat #: PD2-H5220) (human, UniProt Q9BQ51 20-219)
T1 construct: Bought protein; not shown: His tag
T1 sequence (looked up): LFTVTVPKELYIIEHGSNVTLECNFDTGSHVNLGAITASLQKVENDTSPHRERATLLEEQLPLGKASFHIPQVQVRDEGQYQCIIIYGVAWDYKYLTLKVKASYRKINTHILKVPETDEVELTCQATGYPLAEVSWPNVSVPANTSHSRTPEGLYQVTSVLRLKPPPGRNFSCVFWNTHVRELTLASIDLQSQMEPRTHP

T2: His-tagged human B7-H3 protein (hB7-H3-his, ACROBiosystems Inc., Cat #: B73-H52E2) (human, UniProt Q5ZPR3-2 29-245)
T2 construct: Bought protein; not shown: His tag
T2 sequence (looked up): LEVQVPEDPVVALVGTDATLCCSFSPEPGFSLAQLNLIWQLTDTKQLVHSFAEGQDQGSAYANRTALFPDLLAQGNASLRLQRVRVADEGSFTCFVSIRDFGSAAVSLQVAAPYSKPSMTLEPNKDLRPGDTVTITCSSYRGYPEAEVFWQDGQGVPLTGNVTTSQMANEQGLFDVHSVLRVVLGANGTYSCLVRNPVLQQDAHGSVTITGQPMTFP

T3: His-tagged human B7-H2 protein (hB7-H2-his, ACROBiosystems Inc., Cat #: B72-H5221) (human, UniProt O75144 19-258)
T3 construct: Bought protein; not shown: His tag
T3 sequence (looked up): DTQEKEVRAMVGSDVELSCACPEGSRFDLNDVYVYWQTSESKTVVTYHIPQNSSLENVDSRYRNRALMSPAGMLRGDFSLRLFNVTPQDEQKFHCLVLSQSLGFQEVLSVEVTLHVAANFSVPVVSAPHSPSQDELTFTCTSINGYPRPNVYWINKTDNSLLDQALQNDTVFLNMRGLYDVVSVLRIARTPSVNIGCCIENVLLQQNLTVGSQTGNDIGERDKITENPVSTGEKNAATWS

T4: His-tagged human B7-1 protein (hB7-1-his, Kactus, Cat #: B71-HM480) (human, UniProt P33681 35-242)
T4 construct: Bought protein; not shown: His tag
T4 sequence (looked up): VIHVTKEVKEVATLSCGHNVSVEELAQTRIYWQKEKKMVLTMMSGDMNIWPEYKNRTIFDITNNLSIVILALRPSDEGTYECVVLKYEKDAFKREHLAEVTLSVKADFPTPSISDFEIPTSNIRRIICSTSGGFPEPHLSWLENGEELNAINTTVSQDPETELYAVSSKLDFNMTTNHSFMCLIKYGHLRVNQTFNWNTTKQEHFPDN


What was measured:
[1] = target: human PDL1 on helper cells CHO-aAPC-hPDL1 (Promega, Cat #: J1081) (human, UniProt Q9NZQ7 19-290); test: cell-based or functional assay
[2] = target: T5, human PDL1 (hPDL1) expressed on CHO-S cells (CHO-S-hPDL1) (human, UniProt Q9NZQ7 19-290); test: flow cytometry on CHO-S-hPDL1 cells; antibody 1 µg/mL
Method: (§1) Then, after one wash with PBS, the cells were incubated with the secondary antibody anti-hIgG-Fc-Alex Flour 647 (RL1-H) (Jackson ImmunoResearch Laboratories, Inc., 109-606-170) at 4° C. for 15 minutes before flow cytometry analysis.

[3] = target: T6, mouse (Mus musculu) PDL1 (mPDL1) expressed on CHO-S cells (CHO-S-mPDL1) (mouse, UniProt Q9EP73 19-290); test: flow cytometry on CHO-S-mPDL1 cells; antibody 1 µg/mL
Method: as §1

[4] = target: T7, monkey (Macaca fascicularis) PDL1 (fasPDL1) expressed on CHO-S cells (CHO-S-fasPDL1) (monkey (Macaca fascicularis), UniProt Q9NZQ7 19-290 (human entry)); test: flow cytometry on CHO-S-fasPDL1 cells; antibody 1 µg/mL
Method: as §1

[5] = target: T5, human PDL1 (hPDL1) expressed on CHO-S …; test: flow cytometry on CHO-S-hPDL1 cells; antibody 0.1 µg/mL
Method: as §1

[6] = target: T6, mouse (Mus musculu) PDL1 (mPDL1) …; test: flow cytometry on CHO-S-mPDL1 cells; antibody 0.1 µg/mL
Method: as §1

[7] = target: T7, monkey (Macaca fascicularis) PDL1 …; test: flow cytometry on CHO-S-fasPDL1 cells; antibody 0.1 µg/mL
Method: as §1

[8] = target: T1, His-tagged human PDL2 protein …; test: SPR Biacore 8K, antibody captured on Protein A chip, His-tagged antigen as analyte
Method: (§2) The His-tagged antigen protein at a concentration of 200 nM was then injected at 30 μL/min for 180 seconds. Dissociation was monitored for 400 seconds. The chip was regenerated after the last injection of each titration with Glycine (pH 2.0, 30 μL/min for 30 seconds).

[9] = target: T2, His-tagged human B7-H3 protein …; test: as above
Method: as §2

[10] = target: T3, His-tagged human B7-H2 protein …; test: as above
Method: as §2

[11] = target: T4, His-tagged human B7-1 protein …; test: as above
Method: as §2

[12] = target: T8, His-tagged human PDL1 protein (hPDL1-his, ACROBiosystems Inc., Cat #: PD1-H5229) (human, UniProt Q9NZQ7 19-238); test: SPR Biacore 8K, antibody captured on Protein A chip, His-tagged antigen as analyte, 1:1 model
T8 construct: Bought protein; not shown: His tag
Method: (§3) Dissociation was monitored for 400 seconds. The chip was regenerated after the last injection of each titration with Glycine (pH 2.0, 30 μL/min for 30 seconds).

[13] = target: T9, His-tagged Macaca fascicularis PDL1 protein (fasPDL1-his, ACROBiosystems Inc., Cat #: PD1-C52H4) (Macaca fascicularis, UniProt Q9NZQ7 19-238 (human entry)); test: as above
T9 construct: Bought protein; also called monkey PDL1; not shown: His tag
Method: as §3

[14] = target: T10, His-tagged mouse PDL1 protein (mPDL1-his, ACROBiosystems Inc., Cat #: PD1-M5220) (mouse, UniProt Q9EP73 19-238); test: as above
T10 construct: Bought protein; not shown: His tag
Method: as §3

T9 sequence (Q9NZQ7 other isoform, or with tags, fused parts or gaps limits assumed): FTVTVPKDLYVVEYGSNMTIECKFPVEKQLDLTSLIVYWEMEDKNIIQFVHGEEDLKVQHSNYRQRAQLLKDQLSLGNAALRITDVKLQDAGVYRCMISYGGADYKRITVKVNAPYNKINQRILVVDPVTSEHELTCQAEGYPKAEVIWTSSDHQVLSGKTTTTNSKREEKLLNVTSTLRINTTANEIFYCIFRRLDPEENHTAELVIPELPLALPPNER
T7 sequence (Q9NZQ7 other isoform, or with tags, fused parts or gaps limits assumed): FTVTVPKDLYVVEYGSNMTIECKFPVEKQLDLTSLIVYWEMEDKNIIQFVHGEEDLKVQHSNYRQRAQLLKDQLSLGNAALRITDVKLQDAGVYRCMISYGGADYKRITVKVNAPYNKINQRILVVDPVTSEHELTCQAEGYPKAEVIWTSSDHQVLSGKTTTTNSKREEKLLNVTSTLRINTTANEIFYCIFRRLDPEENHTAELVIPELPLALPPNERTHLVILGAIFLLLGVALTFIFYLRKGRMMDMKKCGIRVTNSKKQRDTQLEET
T10 sequence (Q9EP73 19-238 limits assumed): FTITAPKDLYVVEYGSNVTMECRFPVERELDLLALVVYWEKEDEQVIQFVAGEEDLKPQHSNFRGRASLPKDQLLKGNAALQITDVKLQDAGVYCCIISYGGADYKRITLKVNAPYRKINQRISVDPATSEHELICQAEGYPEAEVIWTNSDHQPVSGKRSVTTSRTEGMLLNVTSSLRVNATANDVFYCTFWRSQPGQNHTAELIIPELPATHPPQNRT
T6 sequence (Q9EP73 19-290 limits assumed): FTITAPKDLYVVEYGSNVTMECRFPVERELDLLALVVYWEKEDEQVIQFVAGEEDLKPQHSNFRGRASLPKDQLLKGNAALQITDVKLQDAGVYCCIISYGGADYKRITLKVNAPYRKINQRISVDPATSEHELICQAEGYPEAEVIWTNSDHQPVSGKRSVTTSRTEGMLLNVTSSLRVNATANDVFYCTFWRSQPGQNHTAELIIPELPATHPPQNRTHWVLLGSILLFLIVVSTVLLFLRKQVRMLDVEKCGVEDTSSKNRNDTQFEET
human PDL1 on helper cells CHO-aAPC-hPDL1 (Promega, Cat #: J1081), sequence (Q9NZQ7 19-290 limits assumed): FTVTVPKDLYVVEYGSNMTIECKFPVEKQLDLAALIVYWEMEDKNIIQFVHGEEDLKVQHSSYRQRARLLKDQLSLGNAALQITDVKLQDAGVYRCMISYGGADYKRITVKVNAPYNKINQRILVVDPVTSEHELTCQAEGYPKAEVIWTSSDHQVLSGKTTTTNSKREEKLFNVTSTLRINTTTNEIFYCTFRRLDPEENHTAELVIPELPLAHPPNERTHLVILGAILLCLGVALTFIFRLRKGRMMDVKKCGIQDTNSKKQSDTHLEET
T5 sequence (Q9NZQ7 19-290 limits assumed): as above
T8 sequence (Q9NZQ7 19-238 limits assumed): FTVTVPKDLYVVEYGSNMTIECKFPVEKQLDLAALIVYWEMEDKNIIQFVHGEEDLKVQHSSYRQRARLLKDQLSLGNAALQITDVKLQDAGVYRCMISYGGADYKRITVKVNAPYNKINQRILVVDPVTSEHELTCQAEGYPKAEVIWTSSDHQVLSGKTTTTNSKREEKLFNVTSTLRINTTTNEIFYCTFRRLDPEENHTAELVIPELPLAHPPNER

Row | Binder | IC50 (µg/mL), Blockade of the binding of PDL1 and PD-1 (luciferase, CHO-aAPC-hPDL1 + Jurkat-Luc-hPD1 cells) [1] | Percentage of Positive Cells (%) [2] | Percentage of Positive Cells (%) [3] | Percentage of Positive Cells (%) [4] | Percentage of Positive Cells (%) [5] | Percentage of Positive Cells (%) [6] | Percentage of Positive Cells (%) [7] | binding result [8] | binding result [9] | binding result [10] | binding result [11] | Kd [12] | koff [12] | kon [12] | Kd [13] | koff [13] | kon [13] | Kd [14] | koff [14] | kon [14]
1 | B20A09-N297A (antibody, V domains shown) VH: QVQLQQSGPGLVKPSQTLSLTCAISRDGVSNISGAWNWIRQSPSRGLEWLGRTYYRAMWYKDYALSVKSRITINPDTSKNQFSLQLNSVTPEDTAVYYCAREEYSRGWGAFDIWGQGTMVTVSS VL: not shown | 0.789 µg/mL | 83.1% | 79% | 72% | 69.9% | 67.8% | 64.2% | no binding (tested: 200 nM) | no binding (tested: 200 nM) | no binding (tested: 200 nM) | no binding (tested: 200 nM) | 4.6 nM | 0.000721 s⁻¹ | 157000 M⁻¹ s⁻¹ | 2.95 nM | 0.000612 s⁻¹ | 207000 M⁻¹ s⁻¹ | 41.5 nM | 0.00955 s⁻¹ | 230000 M⁻¹ s⁻¹
2 | B20B02-N297A (antibody, human IgG1, V domains shown) VH: QVQLQQSGGGVVQPGRSLRLSCAASGFTFSTYGMHWVRQAPGKGLEWVAALSFDGGNIYYGDSVKGRFTISRDNSKNTLYLQMNSLRAEDTALYYCAKARLPYSYDAVDYWGQGTLVTVSS VL: EIVMTQSPATLSVSPGERATLSCRASQSVSSNLAWYQQKPGQAPRLLIYDTSTRAIGIPARFSGSGSGTEFTLTISSLQSEDFAIYYCHQYNFWPPITLGQGTRLEIK | 1.13 µg/mL | 89.3% | 87.3% | 79.8% | 69% | 70.6% | 65.9% | no binding (tested: 200 nM) | no binding (tested: 200 nM) | no binding (tested: 200 nM) | no binding (tested: 200 nM) | 1.16 nM | 0.000184 s⁻¹ | 159000 M⁻¹ s⁻¹ | 0.672 nM | 0.000146 s⁻¹ | 217000 M⁻¹ s⁻¹ | 1.28 nM | 0.000168 s⁻¹ | 131000 M⁻¹ s⁻¹

Second part, the binder after the results:

Row | IC50 (µg/mL), Blockade of the binding of PDL1 and PD-1 (luciferase, CHO-aAPC-hPDL1 + Jurkat-Luc-hPD1 cells) [1] | Percentage of Positive Cells (%) [2] | Percentage of Positive Cells (%) [3] | Percentage of Positive Cells (%) [4] | Percentage of Positive Cells (%) [5] | Percentage of Positive Cells (%) [6] | Percentage of Positive Cells (%) [7] | binding result [8] | binding result [9] | binding result [10] | binding result [11] | Kd [12] | koff [12] | kon [12] | Kd [13] | koff [13] | kon [13] | Kd [14] | koff [14] | kon [14] | Binder
3 | 0.745 µg/mL | 87.1% | 77.1% | 74.4% | 72.2% | 66.1% | 66.9% | no binding (tested: 200 nM) | no binding (tested: 200 nM) | no binding (tested: 200 nM) | no binding (tested: 200 nM) | 1.29 nM | 0.000411 s⁻¹ | 318000 M⁻¹ s⁻¹ | 0.765 nM | 0.000331 s⁻¹ | 432000 M⁻¹ s⁻¹ | 17.6 nM | 0.00152 s⁻¹ | 86200 M⁻¹ s⁻¹ | B22E02-N297A (antibody, human IgG1, V domains shown, Human IgG1 with N297A (EU numbering) in the Fc) VH: QVQLVQSGGGLVQPGRSLRLSCRASGFTFDGYSMNWVRQAPGKGLEWVGFIRSKGYGGTSESAASVKGRFTISRDDSKSIAYLQMNSLKTEDTAVYYCTRTRNWNDEGYFDYWGLGTLVTVSS VL: DIQMTQSPSSLSASVGDRVTITCQASQDINKYLNWYQQKPGKAPKLLIYDASNSETGVPSRFSGSGSGTDFTFTISSLQPEDISTYYCQQYDILPITFGQGTRLEIK
4 | 1.14 µg/mL | 83.2% | 75.2% | 70.2% | 65.8% | 65.2% | 65% | no binding (tested: 200 nM) | no binding (tested: 200 nM) | no binding (tested: 200 nM) | no binding (tested: 200 nM) | 8.65 nM | 0.00167 s⁻¹ | 193000 M⁻¹ s⁻¹ | 5.77 nM | 0.00156 s⁻¹ | 271000 M⁻¹ s⁻¹ | 8.04 nM | 0.00187 s⁻¹ | 232000 M⁻¹ s⁻¹ | B21A06-N297A (antibody, human IgG1, V domains shown) VH: QVQLQESGGDVVQPGRSLRLSCAASGFTFNNYGMHWVRQAPSKGLEWVAFIWYDGSNKYYGDSVKGRFTISRDNSKNTLYLQMNSLRAEDTALYYCARGDNWNSDAFDIWGPGTMVTVSS VL: EIVMTQSPLSLPVTLGQPASISCRSSQSLVYTNGNTYLNWFQQRPGQSPRRLIYKVSSRDSGVPDRFSGSGSGTDFTLKISRVAAEDVGLYYCMQGTHWPLTFGGGTKVEIK
